# From patent US8008547B2, “Glyphosate-N-acetyltransferase (GAT) genes” (E.I. duPont de Nemours, priority 2000, dated 2011)
# Substitutions are numbered along the chain they refer to.
# B1: SEQ ID NO: 269: GAT polypeptide (protein)
# chain: MIEVKPINAEDTYEIRHRILRPNQPLEACKYETDLLGGTLHLGGYYRGKLISIASFHQAEHPELEGQKQYQLRGMATLEEYREQKAGSTLIRHAEELLRKKGADLLWCNARTSASGYYKKLGFSEQGEVYDIPPTGPHILMYKKLT
# modifications: 10_12D7
# notes: GAT polypeptide
# B2: SEQ ID NO: 387: GAT polypeptide (protein)
# chain: B1 chain with H17X, K30M, L40F, E80G, E128G, T135V
# modifications: X: residue not identified in the source; ends and bridges not checked
# notes: GAT polypeptide
# B3: SEQ ID NO: 388: GAT polypeptide (protein)
# chain: B1 chain with V4A, K30M, L40F, E80G
# modifications: 6_19A10
# notes: GAT polypeptide
# B4: SEQ ID NO: 389: GAT polypeptide (protein)
# chain: B1 chain with K30M, G37R, T39A, L40F, P62S, E80G, T135V
# modifications: 6_19B6
# notes: GAT polypeptide
# B5: SEQ ID NO: 390: GAT polypeptide (protein)
# chain: B1 chain with L40F, E80G, T135I
# modifications: 6_19C3
# notes: GAT polypeptide
# B6: SEQ ID NO: 391: GAT polypeptide (protein)
# chain: B1 chain with E80G, H93Q, E128G, T135V, K144E
# modifications: 6_19C8
# notes: GAT polypeptide
# B7: SEQ ID NO: 392: GAT polypeptide (protein)
# chain: B1 chain with K30M, G37R, L40F, P62S, E63D, T135V
# modifications: 6_20A7
# notes: GAT polypeptide
# B8: SEQ ID NO: 393: GAT polypeptide (protein)
# chain: B1 chain with E10G, L40F, P62S, E80G, E128G, T135V
# modifications: 6_20A9
# notes: GAT polypeptide
# B9: SEQ ID NO: 394: GAT polypeptide (protein)
# chain: B1 chain with L40F, P62S, E80G, T135I
# modifications: 6_20H5
# notes: GAT polypeptide
# B10: SEQ ID NO: 395: GAT polypeptide (protein)
# chain: B1 chain with I19V, K30M, T39A, L40F, E80G, I132V, T135V
# modifications: 6_21F4
# notes: GAT polypeptide
# B11: SEQ ID NO: 396: GAT polypeptide (protein)
# chain: B1 chain with Q24R, K30M, L40F, E63G, Q67K, E128G, T135V
# modifications: 6_22C9
# notes: GAT polypeptide
# B12: SEQ ID NO: 270: GAT polypeptide (protein)
# chain: B1 chain with K30M, G37R, L40F, I51V, E128G, T135V
# modifications: 10_15F4
# notes: GAT polypeptide
# B13: SEQ ID NO: 397: GAT polypeptide (protein)
# chain: B1 chain with K30M, G37E, L40F, P62S, E80G, T135V
# modifications: 6_22D9
# notes: GAT polypeptide
# B14: SEQ ID NO: 398: GAT polypeptide (protein)
# chain: B1 chain with K30M, L40F, P62S, E79D, T135I
# modifications: 6_22H9
# notes: GAT polypeptide
# B15: SEQ ID NO: 399: GAT polypeptide (protein)
# chain: B1 chain with K30M, E32G, L40F, H61Q, E80G, E128G, T135V
# modifications: 6_23H3
# notes: GAT polypeptide
# B16: SEQ ID NO: 400: GAT polypeptide (protein)
# chain: B1 chain with K30M, L40F, P62S, E80G, L97I, E128G, T135V
# modifications: 6_23H7
# notes: GAT polypeptide
# B17: SEQ ID NO: 401: GAT polypeptide (protein)
# chain: B1 chain with I19V, K30M, L40F, Q69P, E80G, V129I, T135I
# modifications: 6_2H1
# notes: GAT polypeptide
# B18: SEQ ID NO: 402: GAT polypeptide (protein)
# chain: B1 chain with V4I, K30M, L40F, E80G, T135V
# modifications: 6_3D6
# notes: GAT polypeptide
# B19: SEQ ID NO: 403: GAT polypeptide (protein)
# chain: B1 chain with K30M, L40F, P62S, E80G, T135V
# modifications: 6_3G3
# notes: GAT polypeptide
# B20: SEQ ID NO: 404: GAT polypeptide (protein)
# chain: B1 chain with K30M, L40F, T135V
# modifications: 6_3H2
# notes: GAT polypeptide
# B21: SEQ ID NO: 405: GAT polypeptide (protein)
# chain: B1 chain with K30M, L40F, E80G, T135V
# modifications: 6_4A10
# notes: GAT polypeptide
# B22: SEQ ID NO: 406: GAT polypeptide (protein)
# chain: B1 chain with I19V, K30M, L40F, S52G, E80G, K119E, E125G, T135I
# modifications: 6_4B1
# notes: GAT polypeptide
# B23: SEQ ID NO: 271: GAT polypeptide (protein)
# chain: B1 chain with L40F, E80G, I132T, T135V
# modifications: 10_17D1
# notes: GAT polypeptide
# B24: SEQ ID NO: 407: GAT polypeptide (protein)
# chain: B1 chain with K30M, L40F, T135I
# modifications: 6_5D11
# notes: GAT polypeptide
# B25: SEQ ID NO: 408: GAT polypeptide (protein)
# chain: B1 chain with K30M, L40F, Y130H, T135V
# modifications: 6_5F11
# notes: GAT polypeptide
# B26: SEQ ID NO: 409: GAT polypeptide (protein)
# chain: B1 chain with K30M, L40F, P62S, T112I, E128G, T135V
# modifications: 6_5G9
# notes: GAT polypeptide
# B27: SEQ ID NO: 410: GAT polypeptide (protein)
# chain: B1 chain with T12A, L40F, P62S, E80G, E128G, T135V
# modifications: 6_6D5
# notes: GAT polypeptide
# B28: SEQ ID NO: 411: GAT polypeptide (protein)
# chain: B1 chain with K30M, G37R, T39A, L40F, P62S, E80G, E128G, T135V
# modifications: 6_7D1
# notes: GAT polypeptide
# B29: SEQ ID NO: 412: GAT polypeptide (protein)
# chain: B1 chain with K30M, L40F, E80G, E128G, T135V
# modifications: 6_8H3
# notes: GAT polypeptide
# B30: SEQ ID NO: 413: GAT polypeptide (protein)
# chain: B1 chain with P62S, E80G, T135V
# modifications: 6_9G11
# notes: GAT polypeptide
# B31: SEQ ID NO: 414: GAT polypeptide (protein)
# chain: MIEVKPINAEDTYEIRHRILRPNQPLEACMYETDLLGGTFHLGGYYRGKLVCIASFHKAEHSELEGQKQYQLRGMATLDGYREQKAGSTLIRHAEELLRKKGADLLWCNARTSVSGYYEKLGFSEQGEVYDIPPVGPHILMYKKLT
# modifications: 6F1
# notes: GAT polypeptide
# B32: SEQ ID NO: 415: GAT polypeptide (protein)
# chain: B1 chain with K30M, L40F, E128G, T135I
# modifications: 7_1C4
# notes: GAT polypeptide
# B33: SEQ ID NO: 416: GAT polypeptide (protein)
# chain: B1 chain with L40F, E80G, E128G, T135I
# modifications: 7_2A10
# notes: GAT polypeptide
# B34: SEQ ID NO: 272: GAT polypeptide (protein)
# chain: B1 chain with L40F, I51V, P62S, T135V
# modifications: 10_17F6
# notes: GAT polypeptide
# B35: SEQ ID NO: 417: GAT polypeptide (protein)
# chain: B1 chain with K30M, L40F, P62S, E80G, E128G, T135V
# modifications: 7_2A11
# notes: GAT polypeptide
# Experiment: Standard protocol for determination of kcat and KM (continuous spectrophotometric assay, Acetyl CoA hydrolysis at 235 nm)
# Format: biochemical
# Conditions: purified protein; about 23° C.; 20 mM HEPES pH 6.8, 10% ethylene glycol, 0.2 mM acetyl CoA
# Method: KM was calculated from the initial reaction rates obtained from concentrations of glyphosate ranging from 0.125 to 10 mM, using the Lineweaver-Burke transformation of the Michaelis-Menten equation. kcat/KM was determined by dividing the value determined for kcat by the value determined for KM.
# Using this methodology, kinetic parameters for a number of GAT polypeptides exemplified herein were determined. For example, the kcat, KM and kcat/KM for the GAT polypeptide corresponding to SEQ ID NO:445 have been determined to be 322 min^−1, 0.5 mM and 660 mM^−1 min^−1, respectively, using the assay conditions described above. The kcat, KM and kcat/KM for the GAT polypeptide corresponding to SEQ ID NO:457 have been determined to be 118 min^−1, 0.1 mM and 1184 mM^−1 min^−1, respectively, using the assay conditions described above. The kcat, KM and kcat/KM for the GAT polypeptide corresponding to SEQ ID NO:300 have been determined to be 296 min^−1, 0.65 mM and 456 mM^−1 min^−1, respectively, using the assay conditions described above. One of skill in the art can use these numbers to confirm that a GAT activity assay is generating kinetic parameters for a GAT suitable for comparison with the values given herein. For example, the conditions used to compare the activity of GATs should yield the same kinetic constants for SEQ ID NO: 300, 445 and 457 (within normal experimental variance) as those reported herein, when the conditions are used to compare a test GAT with the GAT polypeptides exemplified herein. Kinetic parameters for a number of GAT polypeptide variants were determined according to this methodology and are provided in Table 3.
row,Molecule,Kcat
1,B1,1.29 s⁻¹
2,B2,0.717 s⁻¹
3,B3,1.45 s⁻¹
4,B4,0.398 s⁻¹
5,B5,0.385 s⁻¹
6,B6,1.25 s⁻¹
7,B7,0.673 s⁻¹
8,B8,0.752 s⁻¹
9,B9,0.325 s⁻¹
10,B10,0.405 s⁻¹
11,B11,0.79 s⁻¹
12,B12,0.627 s⁻¹
13,B13,0.732 s⁻¹
14,B14,0.29 s⁻¹
15,B15,0.732 s⁻¹
16,B16,0.77 s⁻¹
17,B17,0.443 s⁻¹
18,B18,0.695 s⁻¹

row,Molecule,Kcat
1,B19,0.865 s⁻¹
2,B20,0.953 s⁻¹
3,B21,0.917 s⁻¹
4,B22,0.45 s⁻¹
5,B23,2.937 s⁻¹
6,B24,0.253 s⁻¹
7,B25,0.668 s⁻¹
8,B26,0.597 s⁻¹
9,B27,0.922 s⁻¹
10,B28,0.328 s⁻¹
11,B29,0.745 s⁻¹
12,B30,1.31 s⁻¹
13,B31,0.168 s⁻¹
14,B32,0.29 s⁻¹
15,B33,0.242 s⁻¹
16,B34,0.798 s⁻¹
17,B35,0.78 s⁻¹

# Same assay, conditions: purified protein; about 23° C.; pH 6.8; 0.2 mM acetyl CoA; glyphosate 0.125 to 10 mM
row,Molecule,Km
1,B1,1800 µM
2,B2,1200 µM
3,B3,1900 µM
4,B4,700 µM
5,B5,1400 µM
6,B6,2000 µM
7,B7,1000 µM
8,B8,1300 µM
9,B9,800 µM
10,B10,700 µM
11,B11,3200 µM
12,B12,1000 µM
13,B13,1300 µM
14,B14,1100 µM
15,B15,1100 µM
16,B16,1200 µM
17,B17,900 µM
18,B18,1000 µM

row,Molecule,Km
1,B19,1000 µM
2,B20,1000 µM
3,B21,1100 µM
4,B22,1000 µM
5,B23,2200 µM
6,B24,1000 µM
7,B25,1900 µM
8,B26,1400 µM
9,B27,1000 µM
10,B28,500 µM
11,B29,1000 µM
12,B30,1300 µM
13,B31,1800 µM
14,B32,1100 µM
15,B33,800 µM
16,B34,1400 µM
17,B35,1100 µM
